Laboratory results as given in paper PMC9584538 (Cell reports, 2022).
Where “and” joins values, the source holds several entries; their conditions need not be identical. Equal entries are not always repeated.

Target: the molecule itself

B1: _(PARL)Skd3^ΔL660-I707 (lacking the CTD) (enzyme, human, UniProt Q9H078 127-707, looked up)
chain: YSKSPSNKDAALLEAARANNMQEVSRLLSEGADVNAKHRLGWTALMVAAINRNNSVVQVLLAAGADPNLGDDFSSVYKTAKEQGIHSLEDGGQDGASRHITNQWTSALEFRRWLGLPAGVLITREDDFNNRLNNRASFKGCTALHYAVLADDYRTVKELLDGGANPLQRNEMGHTPLDYAREGEVMKLLRTSEAKYQEKQRKREAEERRRFPLEQRLKEHIIGQESAIATVGAAIRRKENGWYDEEHPLVFLFLGSSGIGKTELAKQTAKYMHKDAKKGFIRLDMSEFQERHEVAKFIGSPPGYVGHEEGGQLTKKLKQCPNAVVLFDEVDKAHPDVLTIMLQLFDEGRLTDGKGKTIDCKDAIFIMTSNVASDEIAQHALQLRQEALEMSRNRIAENLGDVQISDKITISKNFKENVIRPILKAHFRRDEFLGRINEIVYFLPFCHSELIQLVNKELNFWAKRAKQRHNITLLWDREVADVLVDGYNVHYGARSIKHEVERRVVNQLAAAYEQDLLPGGCTLRITVEDSDKQ
  stoichiometry N: 6 and 12
